Laboratory results from article PMC11055898.

Columns and labels:
Experiment in all cases: SPR
[1] = molecular target: mouse neonatal Fc receptor (FcRn) (mouse) (UniProt Q61559)
mouse CD16-2 = molecular target: mouse CD16-2
mouse CD64 = molecular target: mouse CD64
[2] = molecular target: human CD64 (FcgRI) (human) (UniProt P12314)
human FcRn = molecular target: human FcRn

Chain of human CD64 (FcgRI) (human) (P12314 16-374): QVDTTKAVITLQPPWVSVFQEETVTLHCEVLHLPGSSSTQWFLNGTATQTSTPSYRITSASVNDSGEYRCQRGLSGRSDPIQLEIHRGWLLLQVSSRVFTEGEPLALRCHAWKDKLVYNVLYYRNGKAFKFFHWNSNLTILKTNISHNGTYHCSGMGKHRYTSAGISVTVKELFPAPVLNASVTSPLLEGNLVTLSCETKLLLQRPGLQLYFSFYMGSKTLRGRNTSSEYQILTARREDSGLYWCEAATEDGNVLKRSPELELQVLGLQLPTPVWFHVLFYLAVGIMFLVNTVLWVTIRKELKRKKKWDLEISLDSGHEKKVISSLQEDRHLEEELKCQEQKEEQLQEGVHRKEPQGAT
Chain of human IgG3 (antibody specific for the receptor binding domain of SARS-CoV-2, clone not named) (P01860 whole entry, looked up, the tested form may be a part): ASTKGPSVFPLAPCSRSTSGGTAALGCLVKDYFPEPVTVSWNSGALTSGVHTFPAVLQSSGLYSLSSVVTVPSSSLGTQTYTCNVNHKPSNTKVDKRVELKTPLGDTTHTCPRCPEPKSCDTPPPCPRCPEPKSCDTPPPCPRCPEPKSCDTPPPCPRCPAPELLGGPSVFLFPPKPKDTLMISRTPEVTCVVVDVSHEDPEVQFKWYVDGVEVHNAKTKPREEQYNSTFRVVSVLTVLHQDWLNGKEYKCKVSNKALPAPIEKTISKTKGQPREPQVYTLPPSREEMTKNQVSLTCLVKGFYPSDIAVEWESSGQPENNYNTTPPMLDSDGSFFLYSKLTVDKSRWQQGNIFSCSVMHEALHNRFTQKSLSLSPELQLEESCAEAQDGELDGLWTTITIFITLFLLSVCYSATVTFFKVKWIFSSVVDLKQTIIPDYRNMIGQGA
Chain of mouse neonatal Fc receptor (FcRn) (mouse) (Q61559 22-297): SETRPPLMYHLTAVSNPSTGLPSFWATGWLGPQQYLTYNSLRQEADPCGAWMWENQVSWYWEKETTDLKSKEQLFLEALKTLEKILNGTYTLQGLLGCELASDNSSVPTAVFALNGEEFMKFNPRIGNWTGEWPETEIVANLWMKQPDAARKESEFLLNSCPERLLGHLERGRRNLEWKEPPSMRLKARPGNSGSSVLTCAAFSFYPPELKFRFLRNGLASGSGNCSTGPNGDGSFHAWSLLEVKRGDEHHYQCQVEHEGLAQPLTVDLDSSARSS

Substance	Kd [1] [nM]	koff [1] [s⁻¹]	Kd (mouse CD16-2) [nM]	koff (mouse CD16-2) [s⁻¹]	Kd (mouse CD64) [nM]	koff (mouse CD64) [s⁻¹]	Kd [2] [nM]	koff [2] [s⁻¹]	Kd (human FcRn) [nM]	koff (human FcRn) [s⁻¹]
human IgG1 (antibody specific for the receptor binding domain of SARS-CoV-2, clone not named) (from UniProt P01857)	9.9	0.001	415	0.0275	246	0.062	2.4	0.00014	300	0.088
human IgG3 (antibody specific for the receptor binding domain of SARS-CoV-2, clone not named) (from UniProt P01860)	–	–	–	–	14	0.0014	8.1	0.00033	–	–
